Measurements as given in article PMC11160672.

Biological target: Biotin carboxylase AccC (E. coli) (UniProt P24182)
Assay: SEC

“Biotin-carboxy carrier protein AccB (from UniProt P0ABD8 1-156) (natural protein)” was tested, and the stoichiometry N was 1.
